Patent publication US20190055316A1

Assays:
Native hu MSLN (cells) = Native hu MSLN (cells) (UniProt Q13421); assay: KinExA
Soluble human MSLN [1] = biological target: Soluble human MSLN (UniProt Q13421); assay: Biacore; published value
Soluble human MSLN [2] = biological target: Soluble human MSLN (UniProt Q13421); assay: Biacore

Sequence of Soluble human MSLN (Q13421 296-606): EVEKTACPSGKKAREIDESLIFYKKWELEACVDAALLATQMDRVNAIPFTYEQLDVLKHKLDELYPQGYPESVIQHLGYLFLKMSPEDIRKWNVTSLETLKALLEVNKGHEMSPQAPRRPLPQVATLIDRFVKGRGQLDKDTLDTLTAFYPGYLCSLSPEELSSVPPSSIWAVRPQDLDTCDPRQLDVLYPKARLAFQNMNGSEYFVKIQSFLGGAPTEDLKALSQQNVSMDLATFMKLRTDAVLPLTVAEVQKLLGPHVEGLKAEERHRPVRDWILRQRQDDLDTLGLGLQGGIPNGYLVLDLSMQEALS
Sequence of Native hu MSLN (cells) (Q13421 296-606): as above

Question: For Morab-009 (ssI CDRs), which Kd (Native hu MSLN (cells)) is on record?
Answer: The Kd was 2.2 pM.

Question: What about the Kd (Soluble human MSLN [1]) of the same substance?
Answer: The Kd was 1500 pM.

Question: What about the Kd (Soluble human MSLN [2]) of the same substance?
Answer: Its Kd is 160 pM.
